Results from PMC9482650, “Quantitative fragmentomics allow affinity mapping of interactomes” (Nature Communications, 2022).

T1: SYNJ2BP, P57105
T1 sequence (P57105 8-110, limits assumed, looked up): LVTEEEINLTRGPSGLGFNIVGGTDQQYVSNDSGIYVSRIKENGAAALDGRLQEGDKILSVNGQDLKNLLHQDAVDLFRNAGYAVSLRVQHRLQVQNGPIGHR

T2: TX1BP3, O14907
T2 sequence (O14907 10-122, limits assumed, looked up): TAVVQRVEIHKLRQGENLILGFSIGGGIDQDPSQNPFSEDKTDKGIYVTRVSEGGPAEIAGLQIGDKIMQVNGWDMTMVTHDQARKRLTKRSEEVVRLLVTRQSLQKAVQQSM

T3: SNTG1, Q9NSN8
T3 sequence (Q9NSN8 52-150, limits assumed, looked up): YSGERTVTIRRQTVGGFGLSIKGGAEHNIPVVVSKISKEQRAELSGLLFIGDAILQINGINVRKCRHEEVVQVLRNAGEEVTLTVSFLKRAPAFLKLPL

T4: MPDZ_10, O75970
T4 sequence (O75970 1624-1722, limits assumed, looked up): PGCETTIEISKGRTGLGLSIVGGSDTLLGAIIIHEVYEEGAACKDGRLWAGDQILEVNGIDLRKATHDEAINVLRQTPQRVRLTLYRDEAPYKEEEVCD

T5: DFNB31_2, Q9P202
T5 sequence (Q9P202 274-371, limits assumed, looked up): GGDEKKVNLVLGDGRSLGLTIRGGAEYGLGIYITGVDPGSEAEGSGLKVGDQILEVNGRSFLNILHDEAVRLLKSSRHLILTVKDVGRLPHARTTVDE

T6: APBA2_2, Q99767
T6 sequence (Q99767 654-744, limits assumed, looked up): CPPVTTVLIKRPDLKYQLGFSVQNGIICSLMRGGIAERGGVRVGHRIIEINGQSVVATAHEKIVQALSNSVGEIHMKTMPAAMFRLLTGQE

T7: MPDZ_5, O75970
T7 sequence (O75970 695-796, limits assumed, looked up): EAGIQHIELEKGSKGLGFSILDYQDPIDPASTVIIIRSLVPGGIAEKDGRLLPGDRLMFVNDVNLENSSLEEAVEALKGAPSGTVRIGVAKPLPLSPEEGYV

T8: PDZD7_3, Q9H5P4
T8 sequence (Q9H5P4 857-944, limits assumed, looked up): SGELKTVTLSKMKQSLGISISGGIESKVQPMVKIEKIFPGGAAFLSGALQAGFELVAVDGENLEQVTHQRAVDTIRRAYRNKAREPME

T9: GRIP1_3, Q9Y3R0
T9 sequence (Q9Y3R0 247-346, limits assumed, looked up): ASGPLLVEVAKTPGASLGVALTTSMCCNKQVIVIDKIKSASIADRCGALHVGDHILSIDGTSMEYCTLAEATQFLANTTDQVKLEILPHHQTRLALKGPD

T10: DLG3_1, Q92796
T10 sequence (Q92796 125-227, limits assumed, looked up): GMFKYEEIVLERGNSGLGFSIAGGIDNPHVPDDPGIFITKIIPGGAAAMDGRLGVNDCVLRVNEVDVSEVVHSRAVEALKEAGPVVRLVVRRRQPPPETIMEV


Key:
Experiment in all cases: holdup assay
Set-up in all cases: key: below the threshold = too weak to quantify, mostly under pKd 3.1 to 4
Details in all cases: plain residues with an end cap or a label only (N-terminal biotin on a linker: ttds)
GRIP2_5, Q9C0E4 = biological target: GRIP2_5, Q9C0E4
GRIP2_5, Q9C0E4, sequence (Q9C0E4 544-642): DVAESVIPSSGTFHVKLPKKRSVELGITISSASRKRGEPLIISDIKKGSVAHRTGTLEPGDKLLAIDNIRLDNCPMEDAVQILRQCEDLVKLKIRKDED

TJP1_2, Q07157 = biological target: TJP1_2, Q07157
TJP1_2, Q07157, sequence (Q07157 181-274): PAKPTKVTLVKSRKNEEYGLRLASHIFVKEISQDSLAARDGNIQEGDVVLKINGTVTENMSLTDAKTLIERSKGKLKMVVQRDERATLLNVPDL

NHERF4_4, Q86UT5 = biological target: NHERF4_4, Q86UT5
NHERF4_4, Q86UT5, sequence (Q86UT5 464-550): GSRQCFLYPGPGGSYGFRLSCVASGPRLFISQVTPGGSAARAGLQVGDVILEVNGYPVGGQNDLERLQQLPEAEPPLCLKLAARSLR

SYNJ2BP, P57105 = biological target: T1, SYNJ2BP, P57105
DLG4_3, P78352 = biological target: DLG4_3, P78352
DLG4_3, P78352, sequence (P78352 306-403): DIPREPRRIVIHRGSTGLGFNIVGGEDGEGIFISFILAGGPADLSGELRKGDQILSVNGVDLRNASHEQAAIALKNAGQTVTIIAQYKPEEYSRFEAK

TX1BP3, O14907 = biological target: T2, TX1BP3, O14907
SNTG1, Q9NSN8 = biological target: T3, SNTG1, Q9NSN8
MAGI1_2, Q96QZ7 = biological target: MAGI1_2, Q96QZ7
MAGI1_2, Q96QZ7, sequence (Q96QZ7 456-580): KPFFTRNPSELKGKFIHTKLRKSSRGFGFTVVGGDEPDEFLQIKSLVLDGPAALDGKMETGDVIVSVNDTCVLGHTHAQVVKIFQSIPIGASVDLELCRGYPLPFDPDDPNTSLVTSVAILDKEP

PTPN3, P26045 = biological target: PTPN3, P26045
PTPN3, P26045, sequence (P26045 505-587): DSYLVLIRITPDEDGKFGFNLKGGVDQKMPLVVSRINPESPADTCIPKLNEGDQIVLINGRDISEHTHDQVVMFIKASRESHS

MPDZ_10, O75970 = biological target: T4, MPDZ_10, O75970
DFNB31_2, Q9P202 = biological target: T5, DFNB31_2, Q9P202
GORASP1, Q9BQQ3 = biological target: GORASP1, Q9BQQ3
GORASP1, Q9BQQ3, sequence (Q9BQQ3 1-208): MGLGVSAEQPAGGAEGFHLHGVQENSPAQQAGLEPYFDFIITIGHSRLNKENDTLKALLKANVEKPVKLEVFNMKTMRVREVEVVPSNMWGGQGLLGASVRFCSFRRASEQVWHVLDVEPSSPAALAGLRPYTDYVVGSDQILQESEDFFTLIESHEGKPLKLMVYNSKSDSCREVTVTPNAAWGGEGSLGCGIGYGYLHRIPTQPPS

APBA2_2, Q99767 = biological target: T6, APBA2_2, Q99767
MPDZ_5, O75970 = biological target: T7, MPDZ_5, O75970
PDZRN4_1, Q6ZMN7 = biological target: PDZRN4_1, Q6ZMN7
PDZRN4_1, Q6ZMN7, sequence (Q6ZMN7 213-318): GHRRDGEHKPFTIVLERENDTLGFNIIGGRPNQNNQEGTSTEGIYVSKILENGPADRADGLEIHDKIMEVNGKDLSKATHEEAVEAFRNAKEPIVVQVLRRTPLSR

GORASP2, Q9H8Y8 = biological target: GORASP2, Q9H8Y8
Inadl_8, Q8NI35 = biological target: Inadl_8, Q8NI35
Inadl_8, Q8NI35, sequence (Q8NI35 1425-1530): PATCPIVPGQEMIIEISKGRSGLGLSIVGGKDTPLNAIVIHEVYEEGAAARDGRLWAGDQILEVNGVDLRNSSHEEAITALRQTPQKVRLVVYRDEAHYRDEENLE

LNX1_1, Q8TBB1 = biological target: LNX1_1, Q8TBB1
LNX1_1, Q8TBB1, sequence (Q8TBB1 261-371): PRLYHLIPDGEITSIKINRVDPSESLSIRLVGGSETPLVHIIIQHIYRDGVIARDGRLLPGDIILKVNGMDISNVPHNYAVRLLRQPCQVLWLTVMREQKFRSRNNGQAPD

FRMPD2_3, Q68DX3 = biological target: FRMPD2_3, Q68DX3
FRMPD2_3, Q68DX3, sequence (Q68DX3 1073-1166): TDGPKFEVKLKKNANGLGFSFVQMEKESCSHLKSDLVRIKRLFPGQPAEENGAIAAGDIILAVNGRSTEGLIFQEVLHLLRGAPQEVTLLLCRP

GRID2IP_1, A4D2P6 = biological target: GRID2IP_1, A4D2P6
GRID2IP_1, A4D2P6, sequence (A4D2P6 1-87): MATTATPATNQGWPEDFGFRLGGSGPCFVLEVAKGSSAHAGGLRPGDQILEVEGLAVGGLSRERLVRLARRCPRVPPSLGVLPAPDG

PDZD7_3, Q9H5P4 = biological target: T8, PDZD7_3, Q9H5P4
IL16_3, Q14005 = biological target: IL16_3, Q14005
IL16_3, Q14005, sequence (Q14005 1107-1207): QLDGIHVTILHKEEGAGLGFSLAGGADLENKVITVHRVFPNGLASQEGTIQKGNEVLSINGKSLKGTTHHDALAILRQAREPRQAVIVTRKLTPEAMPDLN

GRIP2_3, Q9C0E4 = biological target: GRIP2_3, Q9C0E4
GRIP2_3, Q9C0E4, sequence (Q9C0E4 238-339): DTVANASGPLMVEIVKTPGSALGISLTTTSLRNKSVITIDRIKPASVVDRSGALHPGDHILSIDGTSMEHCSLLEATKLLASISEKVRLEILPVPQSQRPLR

CASK, O14936 = biological target: CASK, O14936
CASK, O14936, sequence (O14936 487-570): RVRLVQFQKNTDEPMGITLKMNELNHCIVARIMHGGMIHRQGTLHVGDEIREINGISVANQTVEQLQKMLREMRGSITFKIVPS

GRIP1_3, Q9Y3R0 = biological target: T9, GRIP1_3, Q9Y3R0
HTRA2, O43464 = biological target: HTRA2, O43464
HTRA2, O43464, sequence (O43464 355-458): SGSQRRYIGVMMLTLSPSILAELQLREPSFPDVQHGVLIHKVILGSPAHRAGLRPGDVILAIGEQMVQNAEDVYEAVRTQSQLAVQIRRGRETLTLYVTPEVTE

IL16_1, Q14005 = biological target: IL16_1, Q14005
IL16_1, Q14005, sequence (Q14005 210-306): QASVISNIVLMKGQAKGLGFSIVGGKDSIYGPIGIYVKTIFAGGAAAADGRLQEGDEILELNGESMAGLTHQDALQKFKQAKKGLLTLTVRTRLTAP

DLG3_1, Q92796 = biological target: T10, DLG3_1, Q92796

Row | Binder | pKd (GRIP2_5, Q9C0E4) | pKd (TJP1_2, Q07157) | pKd (NHERF4_4, Q86UT5) | pKd (SYNJ2BP, P57105) | pKd (DLG4_3, P78352) | pKd (TX1BP3, O14907) | pKd (SNTG1, Q9NSN8) | pKd (MAGI1_2, Q96QZ7) | pKd (PTPN3, P26045) | pKd (MPDZ_10, O75970) | pKd (DFNB31_2, Q9P202) | pKd (GORASP1, Q9BQQ3) | pKd (APBA2_2, Q99767) | pKd (MPDZ_5, O75970) | pKd (PDZRN4_1, Q6ZMN7) | pKd (GORASP2, Q9H8Y8) | pKd (Inadl_8, Q8NI35) | pKd (LNX1_1, Q8TBB1) | pKd (FRMPD2_3, Q68DX3) | pKd (GRID2IP_1, A4D2P6) | also measured
1 | VLRLQSETSV [VANGL1, Q8TAA9] | below the threshold | below the threshold | below the threshold | 5.41 | 4.51 | 4.21 | 4.67 | 4.37 | 4.97 | below the threshold | below the threshold | below the threshold | below the threshold | below the threshold | 4.46 | below the threshold | below the threshold | below the threshold | below the threshold | below the threshold | pKd (PDZD7_3, Q9H5P4): below the threshold; pKd (IL16_3, Q14005): below the threshold; pKd (GRIP2_3, Q9C0E4): below the threshold; pKd (CASK, O14936): below the threshold; pKd (GRIP1_3, Q9Y3R0): below the threshold; pKd (HTRA2, O43464): below the threshold; pKd (IL16_1, Q14005): 3.7; pKd (DLG3_1, Q92796): 3.96
2 | TVASEKESVM [SLC1A5, Q15758] | below the threshold | below the threshold | below the threshold | 3.51 | below the threshold | 3.69 | below the threshold | below the threshold | 4.94 | below the threshold | below the threshold | below the threshold | below the threshold | below the threshold | 3.87 | below the threshold | below the threshold | below the threshold | below the threshold | below the threshold | pKd (PDZD7_3, Q9H5P4): 3.71; pKd (IL16_3, Q14005): below the threshold; pKd (GRIP2_3, Q9C0E4): below the threshold; pKd (CASK, O14936): below the threshold; pKd (GRIP1_3, Q9Y3R0): below the threshold; pKd (HTRA2, O43464): below the threshold; pKd (IL16_1, Q14005): below the threshold; pKd (DLG3_1, Q92796): below the threshold
3 | SSRTRRETQL [HPV16-E6, P03126] | below the threshold | below the threshold | 3.61 | 5.18 | 5.06 | 4.87 | 3.8 | 5.91 | 5.06 | 3.68 | below the threshold | 3.52 | below the threshold | 3.67 | 5.25 | 4.02 | below the threshold | 3.51 | below the threshold | below the threshold | pKd (PDZD7_3, Q9H5P4): 4.68; pKd (IL16_3, Q14005): below the threshold; pKd (GRIP2_3, Q9C0E4): below the threshold; pKd (CASK, O14936): below the threshold; pKd (GRIP1_3, Q9Y3R0): below the threshold; pKd (HTRA2, O43464): below the threshold; pKd (IL16_1, Q14005): below the threshold; pKd (DLG3_1, Q92796): 3.96
4 | PKTPPTDTSV [KIR3DL3, Q8N743] | below the threshold | below the threshold | below the threshold | 4.44 | below the threshold | 3.67 | below the threshold | below the threshold | 4.48 | below the threshold | below the threshold | below the threshold | below the threshold | below the threshold | below the threshold | 4.04 | below the threshold | below the threshold | below the threshold | below the threshold | pKd (PDZD7_3, Q9H5P4): 3.61; pKd (IL16_3, Q14005): below the threshold; pKd (GRIP2_3, Q9C0E4): below the threshold; pKd (CASK, O14936): below the threshold; pKd (GRIP1_3, Q9Y3R0): below the threshold; pKd (HTRA2, O43464): below the threshold; pKd (IL16_1, Q14005): below the threshold; pKd (DLG3_1, Q92796): 3.69
